The supplement of paper PMC10126150
± gives the standard deviation of the averaged measurements.

System: ATP
Assay: switch fluorescence ratio, 500 uM ATP over buffer (Cy3 cluster intensity, sum of 5 cycles each) (fold (ratio)); higher = stronger signal-on switching upon ATP binding; sequences stand for … in TCGTCGGCAGCGTCAGATGTGTATAAGAGACAGTTTTTTTTTTTTTTTTTTTTTTTTT…TC
Conditions: aptamer strand: ATP DNA aptamer (quencher-CACCTGGGGGAGTATTGCGGAGGAAGG + anchor), 100 nM annealed; ATP concentration: 500 uM
Procedure, shortened: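 Switching-strand clusters labelled with Cy3 on a modified Illumina MiSeq flow-cell were annealed to 100 nM quencher-labelled ATP aptamer, imaged in selection buffer, and re-imaged after 15 min with 500 uM ATP at 22 °C. This was done over five cycles with NaOH stripping and re-annealing in between. The fluorescence ratio is summed target-cycle over summed buffer-cycle Cy3 intensity per cluster, averaged per switch-domain sequence, excluding clusters outside 100-1000 RFU.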
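Note: ATP exposure 15 min at 22 °C before imaging.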

Sequence | switch fluorescence ratio
TCTAAATTTA | 1.01 ± 0.06
AATGTGCTAG | 0.995 ± 0.021
TTACTCTCTG | 1.03 ± 0.025
CATGGGCTGG | 0.9965 ± 0.001
TAAACAATTA | 0.9734 ± 0.0095
CTTTTGGTTT | 0.975 ± 0.032
ATGTGTTAGC | 0.999 ± 0.058
TAGAAAGGGA | 1.02 ± 0.039
GCCAGATTAA | 0.976 ± 0.014
TGGGAAGAGC | 1.025 ± 0.0038
CCGAAGGACT | 1.02 ± 0.072
CGGGGAAATG | 0.997 ± 0.023
GATGAACGTC | 1.11 ± 0.19
CTGTTCCTTT | 1.056 ± 0.0014
TGAGAATTTA | 0.9935 ± 0.0019
TCCCATCTGT | 0.984 ± 0.031
ATTGATATTG | 0.979 ± 0.011
AAAGATTTTT | 0.9851 ± 0.0092
CGGGGAGTCG | 0.945 ± 0.023
TGCACATGGG | 1.02 ± 0.015
CCGTGCAGTA | 3.14 ± 1.2
GGATTTAGGT | 0.994 ± 0.049
TGGTTCTAG | 0.989 ± 0.024

Sequence | switch fluorescence ratio
ATTGGGTATG | 0.998 ± 0.044
GCTTCTATTG | 1.001 ± 0.00067
GGATTATGAA | 0.994 ± 0.023
ATTTTTCCGT | 1.02 ± 0.019
ACCCTCGAGA | 1.06 ± 0.06
ACTAGTGGGG | 0.996 ± 0.017
ATTTCGGGTT | 1.11 ± 0.28
GGGTTATAGG | 0.978 ± 0.025
TAAAATTGGG | 0.989 ± 0.014
TTTGCCTT | 1.06 ± 0.051
GCGTTGGCCA | 1.01 ± 0.016
TTTGCAAGTA | 1.2 ± 0.3
ATCAATTGTC | 1.07 ± 0.025
GGGAAGTTTG | 1 ± 0.038
GATGTACCCC | 1.114 ± 0.0023
GGCCGCGGAC | 1.01 ± 0.035
CCGTCTACTG | 1.04 ± 0.013
GTTCAGGGCT | 1.01 ± 0.02
TACAATCGCC | 1.06 ± 0.029
AATATAAAGC | 1.012 ± 0.0028
TTCCAAATCC | 1.01 ± 0.056
TTACGGGGTA | 1 ± 0.011
GCAGGGAGTT | 0.966 ± 0.029

Sequence | switch fluorescence ratio
GTTGGACGCT | 0.986 ± 0.029
GCCGGGATGT | 1.02 ± 0.052
CGTTTATGTG | 0.9953 ± 0.0089
GGGGTTAGAA | 0.984 ± 0.0077
GAGTTAATTG | 1.01 ± 0.043
GCATATCTGT | 1.0296 ± 0.00023
AAATGGGCTG | 1 ± 0.09
GCGGATAAGC | 1.01 ± 0.039
AAGATTTTTC | 0.992 ± 0.013
TTTAATACTG | 1.08 ± 0.089
AGGGGTTTAT | 0.988 ± 0.021
CAGCTCCCGG | 1.07 ± 0.039
TTTACGGTTG | 0.996 ± 0.016
CCGAGTGGGT | 1.44 ± 0.57
TGGGGACGAC | 1.02 ± 0.063
TGTCTCTGTC | 1.01 ± 0.021
TATTATGAGA | 0.983 ± 0.026
GTAGCTCCTG | 0.995 ± 0.056
TAGGGTAGCG | 0.99 ± 0.012
CACGGGTGTT | 1.32 ± 0.12
GCGAAAAAGA | 0.98 ± 0.031
AATTGATTTA | 1 ± 0.086
GTGCCCAACG | 1.03 ± 0.03

Sequence | switch fluorescence ratio
CGGTGGCGTA | 0.9975 ± 0.0035
AAGGGGGCAG | 0.994 ± 0.025
TTCATTTGAG | 0.995 ± 0.021
GAAGAATGTG | 1.01 ± 0.0082
TGGTATTTTT | 0.991 ± 0.029
TTTTGTAATG | 0.991 ± 0.035
TTGGTTGAAG | 1.02 ± 0.013
CGCGGGTAAC | 1.036 ± 0.0077
CGATGCTACA | 1.06 ± 0.048
TATTTGAAGG | 0.986 ± 0.053
TTTGAACTGT | 1.18 ± 0.14
TAAGGGAATT | 1 ± 0.036
GAGTGGAATA | 1.002 ± 0.0083
AGGTTACTCC | 1.07 ± 0.032
TTCATACGGG | 1.03 ± 0.04
GCTGGGGGAA | 0.98 ± 0.019
GGGGGTCTTA | 0.9974 ± 0.0063
CGGAGGAATT | 1.2 ± 0.11
GGGTGGATGT | 1.01 ± 0.012
GTAAATAGTC | 1.03 ± 0.065
TTGTGGACTT | 0.9995 ± 0.0093
AAGGGTAGAT | 1.01 ± 0.038
AAAAAGAAAG | 1.02 ± 0.022

Sequence | switch fluorescence ratio
TTTATTGACG | 0.886 ± 0.012
TTCGAGTGCC | 0.991 ± 0.013
TCTTTCAAGT | 0.994 ± 0.011
GGATATTGGC | 0.977 ± 0.092
TGTGGCCAGG | 1.04 ± 0.056
GAATCGGGGA | 1.012 ± 0.0031
AATTTGTAGA | 0.9996 ± 0.0047
ATTTCTCTCT | 0.993 ± 0.014
GGGGGGGG | 0.994 ± 0.043
CAGCTCATGC | 1.0792 ± 0.00059
GGCCGGGGAG | 0.981 ± 0.018
GCGGACCGGG | 1.04 ± 0.031
TATTTAGATG | 1.01 ± 0.018
AAACTTAGC | 1.03 ± 0.065
ATAATTTAGT | 0.982 ± 0.028
TGTTTTTAAA | 0.979 ± 0.029
GATAGAGAGG | 1 ± 0.044
GGGCAGGCAC | 0.993 ± 0.018
TGTAGTTTGA | 1 ± 0.012
TTGGTCTGGT | 0.973 ± 0.024
ATTTACCGGA | 1.04 ± 0.052
GGGTAATATG | 1.01 ± 0.049
TACTTGGACT | 1.06 ± 0.018

Sequence | switch fluorescence ratio
CGTACCAGGG | 1.32 ± 0.036
TCAAGGCAA | 1.8 ± 0.037
AGATTACTGC | 1.01 ± 0.023
GTATCCCCCG | 1.03 ± 0.041
TGGTACGGGT | 1.03 ± 0.011
GCGTCCACGG | 1.017 ± 0.01
AGTGGTGGCG | 0.9 ± 0.082
TTGCGGTGCG | 1.01 ± 0.062
TTTGGTCAAG | 1.01 ± 0.016
CTTATAATTG | 0.9935 ± 0.00017
AGTATAGAGT | 1.01 ± 0.037
TGAAGTTTTC | 0.968 ± 0.022
GTCAGGAATT | 0.9981 ± 0.0062
CACTAGGGGA | 1 ± 0.028
TCTTGGTCAG | 0.991 ± 0.025
TTTTATTATG | 1 ± 0.022
ACAGGTTGAA | 0.996 ± 0.036
AGGTGAAGGT | 1.01 ± 0.0035
GTGTAATTTT | 0.993 ± 0.032
CATTTTTGAT | 1.01 ± 0.02
CTTTCCTATG | 1.07 ± 0.019
ATGTAAAAAC | 0.965 ± 0.029
GCAGCAGACG | 1.2 ± 0.076

Sequence | switch fluorescence ratio
GATGGATTAG | 0.982 ± 0.015
ATGGATTGGT | 0.984 ± 0.012
CGTATTCTGA | 0.966 ± 0.064
TTTTCATATC | 1.04 ± 0.025
TTTCCAGTTC | 1.37 ± 0.57
ATACTCTTAT | 1.03 ± 0.04
AATTTGTACC | 0.989 ± 0.013
TTCGTTGGAC | 1.01 ± 0.012
GGGGGCGCGA | 1.02 ± 0.035
GGAAAAGTTT | 0.986 ± 0.04
ATAGCCCGCT | 1.03 ± 0.0014
AGTCTGGATC | 0.9959 ± 0.0084
GATCGATTTG | 0.998 ± 0.023
TACGATAGGG | 1.21 ± 0.16
CAATAAAAG | 0.9766 ± 0.0071
ATCAAGGTTC | 0.9917 ± 0.0095
GAGGTGTGTT | 0.996 ± 0.02
CTGTCTTGA | 1 ± 0.038
ATTCATCGTA | 1.0012 ± 0.0006
